Results: paper PMC2676576 (Structure (London, England : 1993), 2009)
Blank lines part the entries; values can stand above or below the binder they belong to.

How the values were obtained:
bovine ubiquitin = bovine ubiquitin (bovine, UniProt P0CG53 1-76); assay: SPR
[1] = biological target: STAM(10-390) of the ΔCT construct (human, UniProt Q92783 10-390); assay: AUC
Chain of STAM(10-390) of the ΔCT construct (Q92783 10-390, stated change not applied): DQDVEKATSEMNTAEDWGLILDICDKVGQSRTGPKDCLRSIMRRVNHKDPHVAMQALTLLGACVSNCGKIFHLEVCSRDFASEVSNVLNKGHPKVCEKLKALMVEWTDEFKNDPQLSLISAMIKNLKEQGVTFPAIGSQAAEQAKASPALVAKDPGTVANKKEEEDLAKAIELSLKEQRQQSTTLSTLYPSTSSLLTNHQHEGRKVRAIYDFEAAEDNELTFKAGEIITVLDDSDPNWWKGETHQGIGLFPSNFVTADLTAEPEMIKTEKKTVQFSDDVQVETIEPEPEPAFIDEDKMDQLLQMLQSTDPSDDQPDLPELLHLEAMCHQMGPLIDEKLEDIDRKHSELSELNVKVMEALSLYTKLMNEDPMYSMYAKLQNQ

Kd (bovine ubiquitin): 157 µM
B1: his-tagged STAM VHS domain (residues 1-143) (domain or fragment)
chain: not shown

stoichiometry N [1]: 1 Hrs:STAM
B2: Hrs(1-557) of the ΔCT construct (domain or fragment, human, UniProt O14964 1-557, looked up)
chain: MGRGSGTFERLLDKATSQLLLETDWESILQICDLIRQGDTQAKYAVNSIKKKVNDKNPHVALYALEVMESVVKNCGQTVHDEVANKQTMEELKDLLKRQVEVNVRNKILYLIQAWAHAFRNEPKYKVVQDTYQIMKVEGHVFPEFKESDAMFAAERAPDWVDAEECHRCRVQFGVMTRKHHCRACGQIFCGKCSSKYSTIPKFGIEKEVRVCEPCYEQLNRKAEGKATSTTELPPEYLTSPLSQQSQLPPKRDETALQEEEELQLALALSQSEAEEKERLRQKSTYTSYPKAEPMPSASSAPPASSLYSSPVNSSAPLAEDIDPELARYLNRNYWEKKQEEARKSPTPSAPVPLTEPAAQPGEGHAAPTNVVENPLPETDSQPIPPSGGPFSEPQFHNGESEESHEQFLKALQNAVTTFVNRMKSNHMRGRSITNDSAVLSLFQSINGMHPQLLELLNQLDERRLYYEGLQDKLAQIRDARGALSALREEHREKLRRAAEEAERQRQIQLAQKLEIMRQKKQEYLEVQRQLAIQRLQEQEKERQMRLEQQKQTVQMR
